Assay results reported in doi:10.1101/2025.11.11.687775.
Read-outs that look alike come from different tables or passages of the source.

Columns and labels:
[1] = target: microtubules of primary rat hippocampal neurons (rat (endogenous in primary hippocampal neurons)) (UniProt P68370)
[2] = target: microtubules of primary rat hippocampal neurons (rat (endogenous in primary hippocampal neurons)) (UniProt P68370); test: FRAP + reaction-diffusion simulation
[3] = target: microtubules of primary rat hippocampal neurons (rat (endogenous in primary hippocampal neurons)) (UniProt P68370); remark: listed apart in the source
[4] = target: microtubules of primary rat hippocampal neurons (rat (endogenous in primary hippocampal neurons)) (UniProt P68370); test: FRAP + reaction-diffusion simulation; remark: listed apart in the source
[5] = target: microtubules of Tau-knockout mouse neurons (mouse (endogenous in Tau-KO neurons)) (UniProt P68369)

| Substance | FRAP recovery plateau in rat neurons (Figure 3B) [1] | Kd [2] | also measured |
| --- | --- | --- | --- |
| GFP-tagged Tau 198A single alanine substitution mutant (natural protein) | 0.586 |  |  |
| GFP-tagged wild-type human Tau, 0N4R isoform (AcGFP-Tau0N4R-His) (from UniProt P10636-6 1-383) (natural protein) | 0.712 | 3000 nM | FRAP recovery rate constant (K) in rat neurons (Figure 3D), n = 12 [3]: 0.081; koff [4]: > 0.3 s⁻¹; kon [4]: > 100000 M⁻¹ s⁻¹; FRAP recovery rate constant (K), n = 6 (read as Tau-KO neurons) [5]: 0.085; koff [2]: > 0.1 s⁻¹; kon [2]: > 300000 M⁻¹ s⁻¹ |

The next lines start with results.

| FRAP recovery plateau in rat neurons (Figure 3B) [1] | Kd [2] | Substance | also measured |
| --- | --- | --- | --- |
|  | 905 nM | GFP-tagged Tau 198A/199A mutant (2A) (natural protein) |  |
|  | 510 nM | GFP-tagged Tau 198A/199A/202A/205A mutant (4A) (natural protein) |  |
| 0.584 | 1350 nM | GFP-tagged Tau 199A single alanine substitution mutant (natural protein) |  |
